Residue numbers refer to the chain shown, from its start. Names may count otherwise.
T1: rat ANGPTL3(17-455)-His (rat, biotin-labelled in the ELISA and HTRF assays (sites not given))
T1 construct: also called full-length rat ANGPTL3
T1 chain: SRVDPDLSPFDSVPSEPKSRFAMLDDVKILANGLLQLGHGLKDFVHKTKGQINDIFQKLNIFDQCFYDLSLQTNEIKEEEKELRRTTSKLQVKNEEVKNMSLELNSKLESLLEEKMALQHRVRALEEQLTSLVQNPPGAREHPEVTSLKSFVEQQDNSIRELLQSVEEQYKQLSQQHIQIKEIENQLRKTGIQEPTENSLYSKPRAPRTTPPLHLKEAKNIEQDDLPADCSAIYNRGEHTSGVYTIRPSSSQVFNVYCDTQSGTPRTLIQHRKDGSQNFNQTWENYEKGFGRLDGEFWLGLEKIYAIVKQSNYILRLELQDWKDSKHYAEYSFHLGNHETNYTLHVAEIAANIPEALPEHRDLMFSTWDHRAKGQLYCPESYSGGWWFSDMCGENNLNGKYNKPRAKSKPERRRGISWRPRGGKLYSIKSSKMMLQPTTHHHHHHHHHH

T2: human-ANGPTL3 (R&D, 3829-AN) (human, UniProt Q9Y5C1 17-460)
T2 construct: Bought antigen used in the Biacore assay
T2 sequence (looked up): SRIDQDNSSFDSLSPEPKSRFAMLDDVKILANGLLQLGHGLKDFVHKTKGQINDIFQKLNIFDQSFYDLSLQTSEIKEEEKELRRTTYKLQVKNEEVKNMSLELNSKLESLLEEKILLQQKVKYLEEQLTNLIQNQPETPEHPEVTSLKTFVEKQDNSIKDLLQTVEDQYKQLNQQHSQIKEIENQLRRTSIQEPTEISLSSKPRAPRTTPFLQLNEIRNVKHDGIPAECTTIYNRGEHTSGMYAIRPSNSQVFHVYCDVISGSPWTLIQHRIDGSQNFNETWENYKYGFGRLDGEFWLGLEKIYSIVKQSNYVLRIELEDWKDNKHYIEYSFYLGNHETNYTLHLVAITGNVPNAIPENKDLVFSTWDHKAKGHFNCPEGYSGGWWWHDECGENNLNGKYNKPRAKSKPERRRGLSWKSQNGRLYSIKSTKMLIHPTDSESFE

T3: mouse ANGPTL3(17-455)-His (mouse, UniProt Q9R182 17-455, biotin-labelled in the ELISA and HTRF assays (sites not given))
T3 construct: also called full-length mouse ANGPTL3
T3 sequence: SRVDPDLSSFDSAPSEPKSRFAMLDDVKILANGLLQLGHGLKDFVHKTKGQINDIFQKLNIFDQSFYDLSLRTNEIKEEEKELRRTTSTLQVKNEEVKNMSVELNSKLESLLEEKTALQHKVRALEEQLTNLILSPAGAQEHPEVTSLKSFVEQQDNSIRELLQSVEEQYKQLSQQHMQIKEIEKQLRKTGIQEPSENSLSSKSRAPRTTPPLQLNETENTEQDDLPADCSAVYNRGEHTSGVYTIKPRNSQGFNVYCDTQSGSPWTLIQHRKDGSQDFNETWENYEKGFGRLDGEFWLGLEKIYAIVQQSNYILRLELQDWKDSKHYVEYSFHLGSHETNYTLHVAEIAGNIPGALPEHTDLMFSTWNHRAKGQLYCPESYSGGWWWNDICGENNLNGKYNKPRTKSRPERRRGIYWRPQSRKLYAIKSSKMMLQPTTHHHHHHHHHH

T4: cynomolgus monkey ANGPTL3(17-460)-His (cynomolgus monkey, UniProt Q9Y5C1 17-460 (human entry), biotin-labelled in the ELISA and HTRF assays (sites not given))
T4 construct: also called full-length cynomolgus monkey ANGPTL3; Cyno ANGPTL3
T4 chain: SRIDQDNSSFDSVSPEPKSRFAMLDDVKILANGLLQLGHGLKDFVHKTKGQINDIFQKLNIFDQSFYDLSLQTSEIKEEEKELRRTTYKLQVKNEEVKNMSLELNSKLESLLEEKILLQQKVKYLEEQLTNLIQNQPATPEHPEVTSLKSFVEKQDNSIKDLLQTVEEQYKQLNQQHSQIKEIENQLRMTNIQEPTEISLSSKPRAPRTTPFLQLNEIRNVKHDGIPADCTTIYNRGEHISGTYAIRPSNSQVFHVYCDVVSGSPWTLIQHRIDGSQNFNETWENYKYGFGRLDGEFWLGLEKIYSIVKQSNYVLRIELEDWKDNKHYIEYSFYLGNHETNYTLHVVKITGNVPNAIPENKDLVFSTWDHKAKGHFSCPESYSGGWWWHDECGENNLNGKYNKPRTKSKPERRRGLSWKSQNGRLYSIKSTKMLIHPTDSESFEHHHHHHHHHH

B1: P8G (antibody, human IgG4 S228P, kappa, V domains shown)
VH: QVQLVQSGAEVKKPGASVKVSCKASGYTFTSYDINWVRQAPGQGLEWVGLINPRDDSTSYAQKFQGRVTMTRDTSTSTMYMELSSLRSEDTAVYFCARDLGSIREVLYYGMDVWGQGTTVTVSS
VL: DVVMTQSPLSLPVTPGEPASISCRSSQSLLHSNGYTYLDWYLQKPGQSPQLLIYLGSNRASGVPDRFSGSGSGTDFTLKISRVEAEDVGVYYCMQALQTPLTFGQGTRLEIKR
notes: also called anti-ANGPTL3 antibody P8G; P8 (variable regions)
B2: P8BG (antibody, human IgG4 S228P, kappa, V domains shown)
VH: B1 VH with D55E
VL: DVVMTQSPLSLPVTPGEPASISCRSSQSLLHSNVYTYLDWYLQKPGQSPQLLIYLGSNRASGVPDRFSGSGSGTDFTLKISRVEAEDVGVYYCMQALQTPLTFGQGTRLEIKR
notes: also called anti-ANGPTL3 antibody P8BG; P8B (variable regions)
B3: P3G (antibody, human IgG4 S228P, kappa, V domains shown)
VH: QVQLVQSGAEVKKPGASVKVSCKSSGYTFTDYYLHWLRQAPGQGPEWMGWISPNSGGTSYAQKFQGRVTMTRDTSISTAYMELSSLRSDDTAVYYCARDIATLGNFFTYGMDVWGQGTTVTVSS
VL: DIQLTQSPSSLSASVGDRVTITCRASQGIRNDLGWYQQKPGKAPKLLIYAASSLQSGVPSRFSGSGSGTDFTLTISSLQPEDFATYYCQQSYSSWTFGQGTKVEIKR
notes: also called anti-ANGPTL3 antibody P3G; P3 (variable regions)

What was measured:
Assay in all cases: SPR (Biacore T200); antibody captured on Protein A chip, antigen in flow; 1:1 Langmuir fit
rat ANGPTL3(17-455)-His = biological target: T1, rat ANGPTL3(17-455)-His
Description: (§1) Biacore was used to determine the affinity of the test anti-ANGPTL3 antibodies for human, monkey, rat and mouse ANGPTL3, and the method is as follows:
(§2) Reaction signals were detected in real time using a Biacore T200 instrument to obtain association and dissociation curves. After each cycle of dissociation was completed, the biochip was washed and regenerated using a glycine-hydrochloric acid regeneration solution (Cat. # BR-1003-54, GE, pH 1.5). The running buffer for the experiment was 1×HBS-EP buffer (Cat. # BR-1001-88, GE). The data obtained from the experiment were fitted with the (1:1) Langmuir model using GE Biacore T200 evaluation software (version 3.0) to obtain affinity values.

[1] = biological target: T2, human-ANGPTL3 (R&D, 3829-AN)
Description: as §1, §2

[2] = biological target: T3, mouse ANGPTL3(17-455)-His
Description: as §1, §2

[3] = biological target: T4, cynomolgus monkey ANGPTL3(17-460)-His
Description: as §1, §2

| Binder | Kd (rat ANGPTL3(17-455)-His) [nM] | koff (rat ANGPTL3(17-455)-His) [s⁻¹] | kon (rat ANGPTL3(17-455)-His) [M⁻¹ s⁻¹] | Kd [1] [nM] | koff [1] [s⁻¹] | kon [1] [M⁻¹ s⁻¹] | Kd [2] [nM] | koff [2] [s⁻¹] | kon [2] [M⁻¹ s⁻¹] | Kd [3] [nM] | koff [3] [s⁻¹] | kon [3] [M⁻¹ s⁻¹] |
| --- | --- | --- | --- | --- | --- | --- | --- | --- | --- | --- | --- | --- |
| B1 | 0.25 | 0.000335 | 1.34e+06 | 0.151 | 0.000333 | 2.2e+06 | 0.355 | 0.000345 | 970000 | 0.0593 | 0.000497 | 8.37e+06 |
| B2 | 0.257 | 0.000311 | 1.21e+06 | 0.045 | 0.000276 | 6.14e+06 | 0.288 | 0.00042 | 1.46e+06 | 0.0769 | 0.000398 | 5.18e+06 |
| B3 | 0.639 | 0.00082 | 1.28e+06 | 0.285 | 0.000731 | 2.56e+06 | 0.843 | 0.000827 | 981000 | 0.204 | 0.000847 | 4.15e+06 |
